Test results published in publication PMC6210734, “Unliganded Progesterone Receptor Governs Estrogen Receptor Gene Expression by Regulating DNA Methylation in Breast Cancer Cells”.
Numbering of substitutions follows the chain as printed.

B1: PRE no CpG (dsDNA)
DNA 1: GTTGAGTCAGAACAGTTTGTTCTCTAGGCAC
DNA 2: GTGCCTAGAGAACAAACTGTTCTGACTCAAC
B2: PRE two CpGs, unmethylated (dsDNA)
DNA 1: B1 DNA 1 with A14G, T18C
DNA 2: B1 DNA 2 with A14G, T18C

Assays:
[1] = biological target: T1, Progesterone receptor isoform B (PR-B) (Homo sapiens, UniProt P06401 1-933); assay: EMSA; EMSA: 20 min at room temperature, 5% acrylamide-bisacrylamide gel; buffer, salt and pH not stated; conditions: protein: recombinant; chain copies: 2; (radioactive); blunt
[2] = biological target: T1, Progesterone receptor isoform B (PR-B); assay: competition; 100-fold unlabeled competitor vs labeled no-CpG PRE, 2.4 ug PR-B; high-affinity competitor; EMSA: 20 min at room temperature, 5% acrylamide-bisacrylamide gel; buffer, salt and pH not stated; conditions: protein: recombinant; chain copies: 2; (radioactive); blunt

T1 sequence (P06401 whole entry, canonical isoform): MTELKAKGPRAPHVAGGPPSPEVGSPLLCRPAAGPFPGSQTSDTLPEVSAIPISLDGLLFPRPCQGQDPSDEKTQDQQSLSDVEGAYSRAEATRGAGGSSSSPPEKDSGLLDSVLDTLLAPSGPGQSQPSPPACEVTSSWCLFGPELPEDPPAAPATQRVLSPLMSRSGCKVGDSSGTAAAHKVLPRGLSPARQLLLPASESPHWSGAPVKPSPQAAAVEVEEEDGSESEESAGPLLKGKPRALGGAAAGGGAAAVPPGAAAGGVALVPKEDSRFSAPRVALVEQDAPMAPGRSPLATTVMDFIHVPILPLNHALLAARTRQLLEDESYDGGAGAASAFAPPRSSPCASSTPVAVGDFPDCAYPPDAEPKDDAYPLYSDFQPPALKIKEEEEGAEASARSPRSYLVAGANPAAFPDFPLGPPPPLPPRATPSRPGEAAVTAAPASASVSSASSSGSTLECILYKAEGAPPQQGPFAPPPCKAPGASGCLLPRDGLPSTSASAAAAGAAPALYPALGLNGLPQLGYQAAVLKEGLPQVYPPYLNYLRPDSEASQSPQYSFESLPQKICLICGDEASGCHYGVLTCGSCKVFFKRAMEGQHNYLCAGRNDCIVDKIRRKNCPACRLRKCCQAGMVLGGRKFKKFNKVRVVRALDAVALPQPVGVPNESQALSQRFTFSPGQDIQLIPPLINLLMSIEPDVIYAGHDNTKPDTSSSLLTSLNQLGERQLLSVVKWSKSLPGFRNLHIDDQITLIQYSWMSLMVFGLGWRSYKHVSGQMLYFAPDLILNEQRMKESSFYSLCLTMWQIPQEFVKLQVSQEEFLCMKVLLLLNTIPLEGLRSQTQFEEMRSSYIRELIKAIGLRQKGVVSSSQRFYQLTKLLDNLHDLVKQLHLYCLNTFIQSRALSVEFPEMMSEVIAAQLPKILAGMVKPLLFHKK

| Binder | binding result [1] | binding result [2] |
| --- | --- | --- |
| B1 | binds |  |
| B2 |  | binds |
